Experimental data from paper PMC9637997.

Key:
[1] = biological target: GST-tagged Atg8a-WT (UniProt Q9W2S2); test: GST-pulldown, quantified band intensity; conditions: GMAP truncated form (1-490 aa); N = 3; parent: est. 1.6 (est. ± 0.18 SD); read off a plot
[2] = biological target: His-tagged GMAP (truncated form, 1-490 aa); test: GST-pulldown, quantified band intensity; conditions: His-GMAP truncated form (aa 1-490); N = 3; parent: est. 3.0 (est. ± 0.7 SD); read off a plot

UniProt Q9W2S2, sequence (Q9W2S2 entry or part of it): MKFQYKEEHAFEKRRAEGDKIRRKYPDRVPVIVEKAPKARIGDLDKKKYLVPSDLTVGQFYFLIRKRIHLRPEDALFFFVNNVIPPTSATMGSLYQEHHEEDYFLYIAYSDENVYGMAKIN

Row | Substance | response [1] | response [2]
1 | His-tagged GMAP (truncated form, 1-490 aa) F322A; V325A | 1 | –
2 | GST-tagged Atg8a-WT (from UniProt Q9W2S2) K48A; Y49A | – | 1
